In the nanobody polyreactivity screen of Harvey et al. (2022):

Experiment: yeast display, Sf9 membrane polyspecificity reagent, FACS + sequencing; frameworks hold sequencing errors
How it was run: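 Using colony PCR, genes from sorted yeast display clones were amplified, then sequenced on MiSeq at 2 × 250 and filtered by CDR length. The clones had been stained with 10% biotinylated, detergent-solubilized Sf9 membrane reagent for 1 hour at 4 °C and sorted by FACS into low and high (top ~1%) gates on anti-HA and streptavidin fluorescence. Polyreactivity labels come from the gate of origin.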

| Sequence | polyreactivity (PSR sort gate) |
| --- | --- |
| QVQLVESGGGLVQAGGSLSLSCAASGSTFWVYAMGWYRQAPGKERELVATISRGGSTNYADSVKGRFTISRDNAKNTVYLQMNSLKPEDTAVYYCAAPRFYGYGYEYWGQGTQVTVSS | low polyreactivity |
| QVQLVESGGGLVQAGGSLSLSCAASGSTFYFNAMGWYRQAPGKERELVATIRSGDSTYYADSVKGRFTISRDNAKNTVYLQMNRLKPEDTAVYYCAAVSTYFSSTFTEYDYWGQGTQVTVST | low polyreactivity |
| QVQLVESGGGLVQAGGSLSLSCAASGSTFYNYAMGWYRQAPGKERELVASITWNGGSTYYADSVKGRFTISRDNAKNTVYLQMNSLKPEDTAVYYCAADWTWTYPYDYWGQGTQVTVSS | low polyreactivity |
| QVQLVESGGGLVQAGGSLSLSCAASGSTYLDYTMGWYIQAPGKERELVAVISYRAGSTYYADSVKGRFTISRDNAKNTVYLLMHSLKPEDTAVYYCNADYYNYWRRRRYVWYESWGQGTQVTVSS | low polyreactivity |
| QVQLVESGGGLVQAGGSLSLSCAASGYIFSSNTMGWYRQAPGKERELVAGITASATITYYADSVKGRFTISRDNAKNTVYLQMNSLKPEDTAVYYCAADPVLGVFKFEYWGQGTQVTVSS | low polyreactivity |
| QVQLVESGGGLVQAGGSLSLSCAASGYIFVPYAMGWYRQAPGKERELVAAISWSTGTTYYADSVKGRFTISRDNAKNTVYLQMNSLKPEDTAVYYCAAEGYDWIYLYYGLGYWGQGTQVTVSS | low polyreactivity |
| QVQLVESGGGLVQAGGSLSLSCAASVSTSLSYDMGWYRQAPGKERELVASITSSGGSTYYADSVKGRFTIARDNAKNTVYLQMKSLKPEDTAVYYCNARSYIYPFSPTSYYRYYWGQGTQVTVSS | high polyreactivity |
| QVQLVESGGGLVQAGGSLSLSCAASVYIFLVYAMGWYRQAPGKERELVAAISSGGSTYYADSVKGRFTISRDNAKNTVYLQMNSLKPEDTAVYYCAKAGLALYAFRDDYWGQGTQVTVSS | low polyreactivity |
| QVQLVESGGGLVQAGGSLSLSCAATGRIFGPYAMGWYRQAPGKERELVATINSGGSTHYADSVKGRFTISRDNAKNTVYLQMNSLKPEDTAVYYCAATSAYGRYRYYYWGQGTQVTVSS | high polyreactivity |
| QVQLVESGGGLVQAGGSLSLSCASSANIFGVYAKGWYRQPPGKERELVAAIRYSTVSTYYADSVKGRFTISRDNAKNTVYLQLHSLKPEDTAVFYCAAQRRLYLPGHYYYWGQGTQVTVSS | high polyreactivity |
| QVQLVESGGGLVQAGGSLSLSCDASGSIFRSNAMGWYRQAPGKERELVAAISRSGGRTYYADSVKGRFTISRDNAKNTVYLQMNSLKPEDTAVYYCAAQVVRSLKYEYWGQGTQVTVSS | high polyreactivity |
| QVQLVESGGGLVQAGGSLSLSFAASGSTFERYAMGWSRQAPGKERELVAAIRASGVRTYYADSVKGRFTISRDNAKNTVNLQMNSLKPEDTAVYYCAAELQRYWGRLYYYWGQGTQVSVSS | high polyreactivity |
| QVQLVESGGGLVQAGGSLSLSSAATGSNFGRNAMGWYRQATGKEREFVAAISQRGGRTYYSDSVKGRFTISRDNAKNTVYLQMNSLKPEETAVYYCAATYTRVPNRFYYWGQGTQVTVSS | high polyreactivity |
| QVQLVESGGGLVQAGGSPRLSCAASGRTFAEYPMGWYRQAPGKERELVAGISWSGGSTYYADSVKGRFTISRDTAKNTVYLQMNSMKPDDTAVYYCAARGWKRGYYIGHYYYWGQGTQVTVSS | low polyreactivity |
| QVQLVESGGGLVQAGGSPRLSCAASGRTFVFKAMGWYRQAPAKERELVAAITDTTGSTYYADSVKGRFTISRDNAKNTVYLQMNSLKPEDTAVYYCNARVYRPFYYWGQGTQVTVSS | low polyreactivity |
| QVQLVESGGGLVQAGGSQRLSCAASGRIFRYYAMGWYRQAPGKERELVAAITWSGGSTYYADSVKGRFTISRDNEKNTVYLQMNSLKPDDTAVYYCTAISYQPFHGDYWGQGTQVTVSS | low polyreactivity |
